# Numbering of substitutions follows the chain as printed.
# B1: CAB1.7 (clone pSW155.17) (scFv)
# chain: QVQLQQSGAELVKSGGSVKLSCTASGFNIKDSYMHWVRQGPEQGLEWIGWIDPENGDTEYAPKFQGKATFTTDTSSNTAYLQLSSLTSEDTAVYYCNEGLPLGAIYNDYWGQGTTVTVSSGGGGSGGGGSGGGGSENVLTQSPAIVSASPGEKVTITCSASSAVYAMHWFQQKPGTSPKLVIYDTSNLASGVPARFSGSGSGTSYSLTISRMEAEDAATYYCQQRDSYPLTFGAGTKLELDRAATPVSEKQLAEVVANTITPLMKAQSVPGMAVAVIYQGKPHYYTFGKADIAANKPVTPQTLFELGSISKTFTGVLGGDAIARGEISLDDAVTRYWPQLTGKQWQGIRMLDLATYTAGGLPLQVPDEVTDNASLLRFYQNWQPQWKPGTTRLYANASIGLFGALAVKPSGMPYEQAMTTRVLKPLKLDHTWINVPKAEEAHYAWGYRDGKAVRVSPGMLDAQAYGVKTNVQDMANWVMANMAPENVADASLKQGIALAQSRYWRIGSMYQGLGWEMLNWPVEANTVVETSFGNVALAPLPVAEVNPPAPPVKASWVHKTGSTGGFGSYVAFIPEKQIGIVMLANTSYPNPARVEAAYHILEALQ
# notes: scFv-BLA fusion
# B2: NA08.24 (scFv)
# chain: B1 chain with L100T, L102D, A104P, I105Y, N107F, A163S, Y165S, A166Y, D184S, D241K
# B3: NA08.17 (scFv)
# chain: QVQLQQSGAELVKSGGSVKLSCTASGFNIKDSYMHWVRQGPEQGLEWIGHIDPENGDTEYAPKFQGKATFTTDTSSNTAYLQLSSLTSEDTAVYYCNEGTPTGPYYFDYWGQGTTVTVSSGGGGSGGGGSGGGGSENVLTQSPAIVSASPGEKVTITCSASSSVSYMHWFQQKPGTSPKLVIYDTSNLASGVPARFSGSGSGTSYSLTISRMEAEDAATYYCQQRSSYPLTFGAGTKLELKRAATPVSEKQLAEVVANTITPLMKAQSVPGMAVAVIYQGKPHYYTFGKADIAANKPVTPQTLFELGSISKTFTGVLGGDAIARGEISLDDAVTRYWPQLTGKQWQGIRMLDLATYTAGGLPLQVPDEVTDNASLLRFYQNWQPQWKPGTTRLYANASIGLFGALAVKPSGMPYEQAMTTRVLKPLKLDHTWINVPKAEEAHYAWGYRDGKAVRVSPGMLDAQAYGVKTNVQDMANWVMANMAPENVADASLKQGIALAQSRYWRIGSMYQGLGWEMLNWPVEANTVVETSFGNVALAPLPVAEVNPPAPPVKASWVHKTGSTGGFGSYVAFIPEKQIGIVMLANTSYPNPARVEAAYHILEALQ
# B4: NA08.64 (scFv)
# chain: B3 chain with H50W, Q65D, Y166A, D184S
# B5: NA08.9 (scFv)
# chain: B3 chain with H50W, Y166A, D184S
# B6: NA08.12 (scFv)
# chain: B3 chain with H50W, T102H, Y166A, D184S, S226D
# B7: NA08.51 (scFv)
# chain: B3 chain with H50W, P104H, Y166A, D184S
# B8: NA08.1 (scFv)
# chain: B3 chain with Y166A, D184S
# B9: NA08.13 (scFv)
# chain: B3 chain with H50W, Q65H, S226D
# B10: NA08.45 (scFv)
# chain: B3 chain with H50W, T102D, Y166A, D184S
# B11: NA08.14 (scFv)
# chain: B3 chain with H50W, P101D, D184S
# B12: NA08.3 (scFv)
# chain: B3 chain with H50W, D184S, S190D, S226D
# B13: NA08.4 (scFv)
# chain: B3 chain with H50W, T100D, D184S, S190D
# B14: NA05.6 (CAB1.1) (scFv)
# chain: B3 chain with Q3K, V37L, H50W, V146M, D184S
# notes: also called pNA05.6
# B15: NA05.10 (scFv)
# chain: B3 chain with K13R, G16T, H50W, V146M, F170Y, D184S
# B16: NA05.8 (scFv)
# chain: B3 chain with Q3K, G16T, V37L, H50W, V146M, F170Y, V181W, D184S, A234G
# B17: NA05.12 (scFv)
# chain: B3 chain with K13R, S14P, G16T, H50W, V181W, D184S
# B18: NA05.15 (scFv)
# chain: B3 chain with Q3K, K13R, G16T, V37L, H50W, F170Y, V181W, D184S, A194D
# B19: NA05.9 (scFv)
# chain: B3 chain with K13R, S14P, G16T, E42G, H50W, E136Q, D184S, A234G
# B20: clone pSW129.5 (scFv)
# chain: B3 chain with H50W, T100L, T102L, S226D
# B21: clone pSW134.1 (scFv)
# chain: B3 chain with H50W, T100L, F107N, S226D
# B22: NA08.15 (CAB1.4) (scFv)
# chain: B3 chain with H50W, S226D
# B23: NA06.2 (scFv)
# chain: B3 chain with Q3K, E42G, H50W, V146M, D184S, A194D
# B24: NA06.12 (scFv)
# chain: B3 chain with Q3K, H50W, E136Q, V146M, D184S
# B25: NA06.11 (scFv)
# chain: B3 chain with H50W, V146M, D184S, A194D
# B26: NA06.10 (scFv)
# chain: B3 chain with Q3K, H50W, D184S, A194D
# B27: NA06.4 (scFv)
# chain: B3 chain with Q3K, H50W, D184S
# Molecular target: T1, CEA (carcinoembryonic antigen, Biodesign Intl., Saco, Me.) (UniProt P06731 35-685)
# T1 construct: also called immobilized CEA
# T1 sequence: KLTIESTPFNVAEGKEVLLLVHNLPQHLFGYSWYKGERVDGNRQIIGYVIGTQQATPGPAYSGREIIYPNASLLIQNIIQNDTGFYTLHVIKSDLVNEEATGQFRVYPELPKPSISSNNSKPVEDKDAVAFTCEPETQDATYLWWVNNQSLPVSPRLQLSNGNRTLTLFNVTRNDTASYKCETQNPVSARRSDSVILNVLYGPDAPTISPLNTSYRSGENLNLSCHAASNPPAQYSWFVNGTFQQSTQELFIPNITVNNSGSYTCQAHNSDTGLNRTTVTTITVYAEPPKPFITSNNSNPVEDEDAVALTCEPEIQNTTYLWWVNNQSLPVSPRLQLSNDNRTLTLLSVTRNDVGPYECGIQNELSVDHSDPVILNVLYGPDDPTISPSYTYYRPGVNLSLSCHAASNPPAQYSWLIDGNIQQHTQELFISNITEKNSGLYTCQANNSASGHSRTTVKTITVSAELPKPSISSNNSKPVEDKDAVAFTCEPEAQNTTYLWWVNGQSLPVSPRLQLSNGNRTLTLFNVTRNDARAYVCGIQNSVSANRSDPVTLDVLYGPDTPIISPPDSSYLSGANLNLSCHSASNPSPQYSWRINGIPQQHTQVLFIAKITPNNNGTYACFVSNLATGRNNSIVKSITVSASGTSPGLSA
# Experiment: screen of library SW155
row,Binder,binding result
1,B1,binds

# Molecular target: T1, CEA (carcinoembryonic antigen, …)
# Experiment: CEA-coated plate at pH 6.5 and pH 7.4, bound BLA activity
row,Binder,binding result
1,B2,binds
2,B3,binds
3,B4,binds
4,B5,binds
5,B6,binds
6,B7,binds
7,B8,binds
8,B9,binds
9,B10,binds
10,B11,binds
11,B12,binds
12,B13,binds

# Molecular target: T1, CEA (carcinoembryonic antigen, …)
# Experiment: CEA-coated plate, bound BLA activity (nitrocefin), cell lysate
row,Binder,binding result
1,B14,binds
2,B15,binds
3,B16,binds
4,B17,binds
5,B18,binds
6,B19,binds

# Molecular target: T1, CEA (carcinoembryonic antigen, …)
# Experiment: screen of H3 site saturation mini-libraries for improved affinity
row,Binder,binding result
1,B20,binds
2,B21,binds

# Molecular target: T1, CEA (carcinoembryonic antigen, …)
# Experiment: CEA-coated plate, binding curves at pH 6.5 and pH 7.4, bound BLA activity
row,Binder,binding result
1,B22,binds

# Molecular target: T1, CEA (carcinoembryonic antigen, …)
# Experiment: CEA-coated plate after thermolysin treatment of the lysate, bound BLA activity
row,Binder,binding result
1,B23,binds
2,B24,binds
3,B25,binds
4,B26,binds
5,B27,binds

# Reference: patent US20110160440A1 (GENENCOR INTERNATIONAL, published 2011)
